Results: patent publication US20200071424A1 (SHIONOGI, published 2020)
Residue numbers refer to the chain shown, from its start. Where two headings read alike, the source gives them in different places.

T1: human [1-305]-mouse chimeric EL (human; mouse, UniProt Q9WVG5 306-500)
T1 construct: Heparin extract, captured or detected by an anti-C2-tag antibody; also called human-mouse chimeric EL
T1 sequence: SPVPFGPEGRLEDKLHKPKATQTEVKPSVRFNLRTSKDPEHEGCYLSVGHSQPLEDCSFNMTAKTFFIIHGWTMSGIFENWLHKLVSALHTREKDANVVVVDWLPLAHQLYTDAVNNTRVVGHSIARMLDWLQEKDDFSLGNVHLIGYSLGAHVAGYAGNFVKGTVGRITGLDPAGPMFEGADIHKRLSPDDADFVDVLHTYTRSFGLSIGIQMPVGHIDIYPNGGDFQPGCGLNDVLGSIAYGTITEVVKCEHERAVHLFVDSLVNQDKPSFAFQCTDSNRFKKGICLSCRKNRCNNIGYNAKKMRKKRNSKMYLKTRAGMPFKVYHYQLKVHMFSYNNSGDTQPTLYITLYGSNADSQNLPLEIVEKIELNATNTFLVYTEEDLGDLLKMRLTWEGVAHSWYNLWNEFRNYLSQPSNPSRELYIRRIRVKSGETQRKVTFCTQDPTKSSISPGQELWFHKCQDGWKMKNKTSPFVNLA

T2: mouse EL (mouse, UniProt Q9WVG5 21-500)
T2 construct: Heparin extract
T2 sequence (looked up): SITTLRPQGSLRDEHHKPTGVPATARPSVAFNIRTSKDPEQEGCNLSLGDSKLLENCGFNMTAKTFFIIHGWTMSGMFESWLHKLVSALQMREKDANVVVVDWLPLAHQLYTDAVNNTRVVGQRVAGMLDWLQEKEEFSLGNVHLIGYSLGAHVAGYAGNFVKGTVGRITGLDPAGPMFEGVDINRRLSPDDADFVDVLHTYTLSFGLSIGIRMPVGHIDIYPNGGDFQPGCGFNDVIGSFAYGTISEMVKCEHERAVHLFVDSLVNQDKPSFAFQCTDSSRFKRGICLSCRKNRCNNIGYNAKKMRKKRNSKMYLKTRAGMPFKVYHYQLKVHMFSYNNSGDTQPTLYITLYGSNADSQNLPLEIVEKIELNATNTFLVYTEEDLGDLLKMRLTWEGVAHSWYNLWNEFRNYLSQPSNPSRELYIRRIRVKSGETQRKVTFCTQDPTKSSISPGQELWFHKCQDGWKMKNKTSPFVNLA

T3: human [202-500]-mouse chimeric EL (mouse; human, UniProt Q9WVG5 21-201)
T3 construct: Heparin extract, detected by an anti-C2-tag antibody
T3 sequence: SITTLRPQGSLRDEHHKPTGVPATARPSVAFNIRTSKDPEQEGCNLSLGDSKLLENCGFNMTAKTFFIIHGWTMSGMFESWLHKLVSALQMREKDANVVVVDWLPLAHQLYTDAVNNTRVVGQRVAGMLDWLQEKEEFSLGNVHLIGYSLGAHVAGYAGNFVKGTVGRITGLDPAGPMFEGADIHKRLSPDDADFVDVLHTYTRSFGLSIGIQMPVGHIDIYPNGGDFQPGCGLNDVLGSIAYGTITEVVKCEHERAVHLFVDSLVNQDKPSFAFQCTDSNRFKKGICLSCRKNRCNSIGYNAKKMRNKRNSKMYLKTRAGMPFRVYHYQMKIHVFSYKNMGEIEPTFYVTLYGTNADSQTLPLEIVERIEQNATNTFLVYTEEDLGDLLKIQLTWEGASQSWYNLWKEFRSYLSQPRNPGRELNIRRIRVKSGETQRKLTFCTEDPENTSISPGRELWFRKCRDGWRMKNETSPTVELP

T4: human [1-157]-mouse chimeric EL (human; mouse, UniProt Q9WVG5 158-500)
T4 construct: Heparin extract, detected by an anti-C2-tag antibody
T4 sequence: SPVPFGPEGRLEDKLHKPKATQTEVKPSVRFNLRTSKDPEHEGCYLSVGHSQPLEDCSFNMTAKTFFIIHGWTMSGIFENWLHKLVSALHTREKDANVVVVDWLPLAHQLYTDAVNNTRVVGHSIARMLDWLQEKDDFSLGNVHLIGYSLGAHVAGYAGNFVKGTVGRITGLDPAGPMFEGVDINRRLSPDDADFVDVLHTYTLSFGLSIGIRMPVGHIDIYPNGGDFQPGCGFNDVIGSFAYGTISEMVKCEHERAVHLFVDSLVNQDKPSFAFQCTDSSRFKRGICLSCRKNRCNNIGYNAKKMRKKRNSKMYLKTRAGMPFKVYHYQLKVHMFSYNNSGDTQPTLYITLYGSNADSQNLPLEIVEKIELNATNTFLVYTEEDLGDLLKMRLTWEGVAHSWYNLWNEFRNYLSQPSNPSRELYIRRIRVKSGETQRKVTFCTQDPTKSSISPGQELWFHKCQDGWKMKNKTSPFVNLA

B1: 16B3 (antibody, mouse IgG2a, V domains shown)
VH: DVKLVESGGGLVQPGGSLKLSCTASGFTFSGYTMSWVRQTPEKRLELVAEISFARDRAFYPDTVKGRFTISRDNAKNTLYLQMSSLKSEDTAMYYCTRLGGRNHDYWYFDVWGTGTTVTVSS
VL: DIVLTQSPTSLAVSPGQRATISCRASESVEYYGTSLMQWYQQKPGQRPQLLIYAASNVESGVPARFSGSGSGTDFSLNIHPVEEDDIAVYFCQQSWKVPFTFGSGTKLEIK
notes: mouse IgG2a from hybridoma; also called 16B3 (mouse mAb)
B2: 16E7 (antibody, mouse IgG1, V domains shown)
VH: B1 VH with D1E, T23A, G31S, A54T, D56S, T97A, R102N, H104Y
VL: B1 VL with P15L, Q49K, V89M
notes: mouse IgG1 from hybridoma
B3: 14E1 (antibody, mouse IgG1, V domains shown)
VH: QVQLQQSGAELVKPGASVRLSCKASGYTFTKYTIHWVKQRSGQGLEWIGWFYPGSDSIKYNEKFKDKATLTADKSSRTVYMELSRLTSEDSAVYFCARHEEYTNSLAYWGQGTLVTVSA
VL: DIQMTQTTSSLSASLGDRVTISCRASQDISNYLNWYQQQPDGTVKLLIYYTSRLHSGVPSRFSGSGSGTDYSLTISNLEQEDIATYFCQQGYTLPWTFGGGTNLEIK
notes: mouse IgG1 from hybridoma
B4: 19E7 (antibody, mouse IgG2a, V domains shown)
VH: QVQLQQPGSVLVRPGASVKLSCKASGYTFTTYWMHWVKQRPGQGLEWIGEIHPYSGNNNNNEKFKGKATLTVDTSSSTAYVDLSRLTSEDSAVYYCARYDSNYVFAYWGQGTLVTVSA
VL: QIVLTQSPAIMSASPGEGVTITCSASSSVSYMHWFQQKPGTSPKLWIYSTSNLASGVPARFSGSGSGTSYSLTISRMEAEDAATYYCQQRDSYLTFGSGTKLEVK
notes: mouse IgG2a from hybridoma; also called 19E1(19E7)
B5: h16F6-S1 (antibody, V domains shown)
VH: QVQLVQSGAEVKKPGASVKVSCKASGYTFTTYWIAWVRQAPGQGLEWMGEILPGSAKTKYNKKFKGRVTMTRDTSTSTVYMELSSLRSEDTAVYYCAVYDYGADYWGQGTTVTVSS
VL: DIQMTQSPSSLSASVGDRVTITCKASQDVYTAVAWYQQKPGKSPKLLIYSASYRFTGVPSRFSGSGSGTDFTLTISSLQPEDFATYYCQQHYSIPRTFGGGTKVEIK
notes: humanized

Tests used:
[1] = target: cynomolgus monkey EL (cynomolgus monkey); experiment: cell-based or functional assay
[2] = target: rabbit EL (rabbit); experiment: cell-based or functional assay
[3] = target: cynomolgus monkey EL (cynomolgus monkey); experiment: cell-based or functional assay; remark: listed apart in the source
[4] = target: baboon EL (baboon); experiment: cell-based or functional assay
[5] = target: human-mouse chimeric EL (construct not specified); experiment: cell-based or functional assay
[6] = target: T1, human [1-305]-mouse chimeric EL; experiment: Biacore; EL captured by anti-C2-tag Ab; bivalent fit
Protocol: (§1) The binding affinities of anti-EL antibodies were measured using Biacore. […] Then, anti-EL antibodies were added and the binding affinities were calculated by bivalent fitting of BIAevaluation software.

[7] = target: T5, cynomolgus monkey EL (cynomolgus monkey); experiment: as above
T5 construct: Heparin extract; also called cynomolgus EL; Cynomolgus EL
Protocol: as §1

[8] = target: T6, baboon EL (baboon); experiment: as above
T6 construct: Heparin extract
Protocol: as §1

[9] = target: T2, mouse EL; experiment: ELISA: antibody captured on anti-mouse IgG-Fc plate, EL heparin extract added, detection with biotin anti-C2-tag antibody and HRP-streptavidin, A450
Protocol: (§2) Assay buffer containing 15 μl of anti-EL antibody was added to anti-mouse IgG-Fc antibody-immobilized microtiter plate, and incubated for 2 hr. […] After washing the wells three times with 90 μL of washing buffer, 15 μl of assay buffer containing biotin-labeled anti-C2-tag antibody and HRP-labeled Streptavidin were added to the wells and incubated at room temperature for 1 hr. After washing the wells three times with 90 μL of washing buffer, 15 μL of TMB+—Substrate—Chromogen (DAKO) was added and incubated at room temperature for 30 min and then 15 μL of 0.05 M H2SO₄ was added and absorbance at 450 nm was measured (FIG. 3A to 3K).

[10] = target: T1, human [1-305]-mouse chimeric EL; experiment: as above
Protocol: as §2

[11] = target: T5, cynomolgus monkey EL; experiment: as above
Protocol: as §2

[12] = target: T6, baboon EL; experiment: as above
Protocol: as §2

[13] = target: T3, human [202-500]-mouse chimeric EL; experiment: as above
Protocol: as §2

[14] = target: T1, human [1-305]-mouse chimeric EL; experiment: cell-based or functional assay
[15] = target: T4, human [1-157]-mouse chimeric EL; experiment: ELISA: antibody captured on anti-mouse IgG-Fc plate, EL heparin extract added, detection with biotin anti-C2-tag antibody and HRP-streptavidin, A450
Protocol: as §2

[16] = target: T2, mouse EL; experiment: cell-based or functional assay
[17] = target: T6, baboon EL; experiment: cell-based or functional assay; remark: listed apart in the source
[18] = target: T2, mouse EL; experiment: Biacore; EL captured by anti-C2-tag Ab; bivalent fit
Protocol: (§3) The binding affinities of anti-EL antibodies were measured using Biacore. […] Then, anti-EL humanized antibodies were added and the binding affinities were calculated by bivalent fitting of BIAevaluation software.

[19] = target: T6, baboon EL; experiment: as above; remark: listed apart in the source
Protocol: as §3

Neutralizing activity IC50 [2] [nM]	Neutralizing activity IC50 [3] [nM]	Neutralizing activity IC50 [4] [nM]	Neutralizing activity IC50 [5] [nM]	Kd [6] [nM]	koff [6] [s⁻¹]	kon [6] [M⁻¹ s⁻¹]	Kd [7] [nM]	koff [7] [s⁻¹]	kon [7] [M⁻¹ s⁻¹]	Kd [8] [nM]	koff [8] [s⁻¹]	kon [8] [M⁻¹ s⁻¹]	binding result [9]	EC50 (read off the curve) [10] [ng/mL]	EC50 (read off the curve) [11] [ng/mL]	EC50 (read off the curve) [12] [ng/mL]	EC50 (read off the curve) [13] [ng/mL]	further results	Binder
6.3	1.9	3	1.3	3.7	0.00019	51000	2.1	8.9e-05	42000	3.2	9.8e-05	31000	no binding (tested: about 330 ng/mL)	~3	~4	~5	~4	Neutralizing activity IC50 [1]: 1.8 nM; Neutralizing activity IC50 [14]: 1.3 nM	B1
> 40	2.5	2.1	1.1	1.1	0.0001	95000				4.7	0.00025	53000		~6	~6		~8		B2
5.9	2.4	3.3	1.4	5.4	0.00023	42000	5.9	0.00069	120000	5.8	0.00085	150000		~7	~10	~20	~20		B3
5.7	1.7	2	2.4				3.3	0.00018	55000				no binding (tested: about 330 ng/mL)	~6	~30			binding result [15]: no binding (tested: about 330 ng/mL)	B4
																		Neutralizing activity IC50 [16]: 3.1 nM; Neutralizing activity IC50 [17]: 2.6 nM; Kd [18]: 0.16 nM; koff [18]: 0.00019 s⁻¹; kon [18]: 1.2e+06 M⁻¹ s⁻¹; Kd [19]: 0.57 nM; koff [19]: 0.00074 s⁻¹; kon [19]: 1.3e+06 M⁻¹ s⁻¹	B5
